PMC6687201, “Atg11 tethers Atg9 vesicles to initiate selective autophagy” (PLoS Biology, 2019)

Columns and labels:
[1] = target: T1, Atg9^core reconstituted in proteoliposomes (yeast, UniProt Q12142 281-779); assay: cell-based or functional assay
T1 sequence (looked up): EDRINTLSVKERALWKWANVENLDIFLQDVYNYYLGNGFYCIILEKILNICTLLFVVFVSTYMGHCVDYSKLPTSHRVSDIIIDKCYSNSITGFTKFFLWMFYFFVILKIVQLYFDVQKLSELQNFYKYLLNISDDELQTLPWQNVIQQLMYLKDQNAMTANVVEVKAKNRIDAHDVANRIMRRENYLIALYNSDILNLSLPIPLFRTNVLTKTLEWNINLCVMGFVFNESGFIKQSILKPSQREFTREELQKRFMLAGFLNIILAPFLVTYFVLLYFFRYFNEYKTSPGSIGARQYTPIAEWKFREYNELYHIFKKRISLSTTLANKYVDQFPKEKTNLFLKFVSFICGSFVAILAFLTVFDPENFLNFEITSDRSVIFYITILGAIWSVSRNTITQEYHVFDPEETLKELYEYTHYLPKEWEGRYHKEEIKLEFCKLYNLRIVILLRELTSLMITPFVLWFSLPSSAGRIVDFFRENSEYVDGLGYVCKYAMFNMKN

HA-tagged Atg9 = target: T2, HA-tagged Atg9 (S. cerevisiae, UniProt Q12142 1-997); assay: co-IP; competition: purified Atg17 (0, 1, 4 μM) added to lysates of nonstarved cells; IP of Atg11-myc, HA-Atg9 detected by blot; conditions: one partner purified
T2 construct: Atg9, transmembrane autophagy protein, yeast; also called HA-Atg9; source: yeast cells expressing HA-tagged Atg9, in lysate
T2 sequence (looked up): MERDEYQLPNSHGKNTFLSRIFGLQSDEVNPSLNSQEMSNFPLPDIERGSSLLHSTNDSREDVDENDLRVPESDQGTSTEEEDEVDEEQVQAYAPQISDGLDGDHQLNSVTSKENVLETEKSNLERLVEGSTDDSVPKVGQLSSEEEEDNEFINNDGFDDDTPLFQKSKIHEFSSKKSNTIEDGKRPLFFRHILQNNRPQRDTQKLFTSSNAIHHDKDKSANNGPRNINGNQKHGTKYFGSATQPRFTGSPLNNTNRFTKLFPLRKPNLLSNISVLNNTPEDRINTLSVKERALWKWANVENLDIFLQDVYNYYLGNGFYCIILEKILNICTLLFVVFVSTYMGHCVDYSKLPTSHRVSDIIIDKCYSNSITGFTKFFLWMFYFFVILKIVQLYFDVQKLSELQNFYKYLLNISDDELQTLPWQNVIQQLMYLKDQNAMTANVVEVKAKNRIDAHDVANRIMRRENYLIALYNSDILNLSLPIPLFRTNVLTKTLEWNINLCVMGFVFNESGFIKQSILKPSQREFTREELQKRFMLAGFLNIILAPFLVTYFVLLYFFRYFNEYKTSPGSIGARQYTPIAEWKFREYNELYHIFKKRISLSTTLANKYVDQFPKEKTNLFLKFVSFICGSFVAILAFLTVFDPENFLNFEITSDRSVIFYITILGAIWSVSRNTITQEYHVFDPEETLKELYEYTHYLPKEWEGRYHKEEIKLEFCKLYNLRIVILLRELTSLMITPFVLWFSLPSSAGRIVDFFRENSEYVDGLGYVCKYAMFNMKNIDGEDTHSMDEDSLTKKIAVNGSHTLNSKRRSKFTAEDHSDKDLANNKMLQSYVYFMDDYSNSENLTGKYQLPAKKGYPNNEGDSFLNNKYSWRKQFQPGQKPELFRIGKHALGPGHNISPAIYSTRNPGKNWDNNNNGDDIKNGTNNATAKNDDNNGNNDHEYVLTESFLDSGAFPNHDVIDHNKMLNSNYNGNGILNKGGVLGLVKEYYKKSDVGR

[2] = target: T1, Atg9^core reconstituted in …; assay: co-floatation with proteoliposomes; competition: Atg11 and Atg17 coincubated with Atg9-PLs at different stoichiometric ratios (Atg11 kept constant); floated fraction on SDS-PAGE, amounts from band intensities; conditions: both partners purified
[3] = target: T3, recombinant purified Atg11 (Atg11-His6) (yeast, UniProt Q12527 1-1178, Atto565 label in the GUV experiments); assay: pull-down; 10 μg recombinant GST-tagged bait coupled to Glutathione-resin, with recombinant Atg11; SDS-PAGE; conditions: both partners purified
T3 construct: N-terminal residual glycine-proline from PreScission protease digestion; Atg11, yeast; expressed from pCoofy37-Atg11; measured molecular weight 136 kDa; also called His-tagged Atg11; Atg11^Atto565; source: E. coli BL21 (DE3), coexpressed with chaperones from pG-KJE8, purified (Ni-NTA, PreScission digestion, gel filtration); not shown: His6, C-terminal, kept
T3 sequence: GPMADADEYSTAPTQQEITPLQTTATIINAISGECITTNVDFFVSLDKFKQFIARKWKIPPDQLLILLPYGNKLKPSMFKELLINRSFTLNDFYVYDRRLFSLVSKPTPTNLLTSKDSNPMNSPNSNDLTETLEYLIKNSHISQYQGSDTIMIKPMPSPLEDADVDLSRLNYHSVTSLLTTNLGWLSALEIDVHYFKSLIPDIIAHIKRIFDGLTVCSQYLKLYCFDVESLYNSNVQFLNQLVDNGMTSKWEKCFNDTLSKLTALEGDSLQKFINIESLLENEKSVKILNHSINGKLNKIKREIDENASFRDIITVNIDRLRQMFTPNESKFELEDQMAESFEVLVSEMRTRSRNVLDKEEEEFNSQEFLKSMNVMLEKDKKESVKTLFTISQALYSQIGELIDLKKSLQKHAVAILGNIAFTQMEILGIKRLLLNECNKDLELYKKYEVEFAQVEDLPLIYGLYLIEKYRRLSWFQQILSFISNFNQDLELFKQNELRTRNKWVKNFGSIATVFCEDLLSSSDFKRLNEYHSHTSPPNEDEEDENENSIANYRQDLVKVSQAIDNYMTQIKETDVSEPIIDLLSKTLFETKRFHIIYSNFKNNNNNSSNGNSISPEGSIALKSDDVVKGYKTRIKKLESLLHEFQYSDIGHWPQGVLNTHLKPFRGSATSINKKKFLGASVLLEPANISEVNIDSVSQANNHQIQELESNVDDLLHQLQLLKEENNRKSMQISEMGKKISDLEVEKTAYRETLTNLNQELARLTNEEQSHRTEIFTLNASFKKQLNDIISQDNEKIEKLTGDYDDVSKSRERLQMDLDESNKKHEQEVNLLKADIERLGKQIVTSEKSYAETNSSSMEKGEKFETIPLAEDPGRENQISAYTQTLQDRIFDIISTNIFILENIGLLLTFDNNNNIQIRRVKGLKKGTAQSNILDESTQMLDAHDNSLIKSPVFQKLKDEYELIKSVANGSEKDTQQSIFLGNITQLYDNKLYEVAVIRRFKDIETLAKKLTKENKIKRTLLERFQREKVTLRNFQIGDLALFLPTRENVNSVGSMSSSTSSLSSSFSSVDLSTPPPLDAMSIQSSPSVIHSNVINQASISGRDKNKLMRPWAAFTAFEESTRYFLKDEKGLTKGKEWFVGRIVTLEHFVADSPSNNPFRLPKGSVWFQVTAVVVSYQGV

B1: recombinant purified Atg17 (natural protein, yeast, UniProt Q06410 1-417, looked up)
chain: MNEADVTKFVNNARKTLTDAQLLCSSANLRIVDIKKKLSSWQLSISKLNFLIVGLRQQGKFLYTILKEGIGTKLIQKQWNQAVLVVLVDEMKYWQYEITSKVQRLDGIVNELSISEKDDTDPSKLGDYISRDNVNLLNDKLKEVPVIERQIENIKLQYENMVRKVNKELIDTKLTDVTQKFQSKFGIDNLMETNVAEQFSRELTDLEKDLAEIMNSLTQHFDKTLLLQDKKIDNDEREELFKVVQGDDKELYNIFKTLHEVIDDVDKTILNLGQFLQAKIKEKTELHSEVSEIINDFNRNLEYLLIFKDISNLIDSFKNSCTQDIQTTKELCEFYDNFEESYGNLVLEAKRRKDVANRMKTILKDCEKQLQNLDAQDQEERQNFIAENGTYLPETIWPGKIDDFSSLYTLNYNVKNP
notes: Atg17, scaffolding protein of nonselective autophagy, yeast
hydrodynamic radius of Atg9 vesicles against control SUVs in the presence of Atg17 (dynamic light scattering; vesicle tethering) [1]: 2 fold | molar excess of Atg17 over Atg11 for equal binding to Atg9 (HA-tagged Atg9): 25 fold | molar excess of Atg17 over Atg11 for similar recovery of both [2]: 25 fold

B2: GST-tagged wild-type Atg29 (natural protein, yeast, UniProt Q12092 1-213, looked up)
chain: MIMNSTNTVVYIKVKGRRPQGFLDPPKFEWNGTKERQLWTMVSNLNYSQDQIDWQNLSKIFETPEFFLKKRTYKLFAEHLELLQLQLEKKRDLEKYSNDQVNEGMSDLIHKYTPTLQNDNLLNVSASPLTTERQDSEEVETEVTNEALQHLQTSKILNIHKKTSDSENKPNDKLDKDGINKEMECGSSDDDLSSSLSVSKSALEEALMDRLQF
notes: Atg29, yeast; also called GST-Atg29^WT; Atg29^WT
binding result [3]: binds

B3: GST-Atg31-Atg29^WT subcomplex (complex, yeast)
chain 1: MNVTVTVYDKNVKYRLEENIKNNKGPSNDDQPAYNNESKSTDGSDYAMFPTNIKYIFEDNNDELVDSSDAALTAGIDKVGDELENVIIVQLDESGSLEDITLISDQYELLSHRTNSLSLEENQMRTLSSHGDDKSNDEEEELSVDSDRFRVDSDIELDVISQFCDLSPFLRDLSLNDLIKLYVTQNEQLQMLSNSV
chain 2: MIMNSTNTVVYIKVKGRRPQGFLDPPKFEWNGTKERQLWTMVSNLNYSQDQIDWQNLSKIFETPEFFLKKRTYKLFAEHLELLQLQLEKKRDLEKYSNDQVNEGMSDLIHKYTPTLQNDNLLNVSASPLTTERQDSEEVETEVTNEALQHLQTSKILNIHKKTSDSENKPNDKLDKDGINKEMECGSSDDDLSSSLSVSKSALEEALMDRLQF
notes: Atg31, yeast; Atg29, yeast; also called GST-tagged Atg31 (31) and Atg29^WT (29); source: recombinant, coexpressed and purified as subcomplex
binding result [3]: binds

B4: GST-tagged phosphomimetic Atg29 (Atg29^SD) (natural protein, yeast, UniProt Q12092 1-213, looked up)
chain: MIMNSTNTVVYIKVKGRRPQGFLDPPKFEWNGTKERQLWTMVSNLNYSQDQIDWQNLSKIFETPEFFLKKRTYKLFAEHLELLQLQLEKKRDLEKYSNDQVNEGMSDLIHKYTPTLQNDNLLNVSASPLTTERQDSEEVETEVTNEALQHLQTSKILNIHKKTSDSENKPNDKLDKDGINKEMECGSSDDDLSSSLDVDKDALEEALMDRLQF
notes: Atg29, yeast, phosphomimetic variant; also called GST-Atg29^SD; Atg29^(S197D, S199D, S201D); source: recombinant, purified
binding result [3]: binds

B5: GST-Atg31-Atg29^SD subcomplex (complex, yeast)
chain 1: MNVTVTVYDKNVKYRLEENIKNNKGPSNDDQPAYNNESKSTDGSDYAMFPTNIKYIFEDNNDELVDSSDAALTAGIDKVGDELENVIIVQLDESGSLEDITLISDQYELLSHRTNSLSLEENQMRTLSSHGDDKSNDEEEELSVDSDRFRVDSDIELDVISQFCDLSPFLRDLSLNDLIKLYVTQNEQLQMLSNSV
chain 2: MIMNSTNTVVYIKVKGRRPQGFLDPPKFEWNGTKERQLWTMVSNLNYSQDQIDWQNLSKIFETPEFFLKKRTYKLFAEHLELLQLQLEKKRDLEKYSNDQVNEGMSDLIHKYTPTLQNDNLLNVSASPLTTERQDSEEVETEVTNEALQHLQTSKILNIHKKTSDSENKPNDKLDKDGINKEMECGSSDDDLSSSLDVDKDALEEALMDRLQF
notes: Atg31, yeast; Atg29, yeast, phosphomimetic variant; also called GST-tagged Atg31 (31) and Atg29^SD (29^SD); source: recombinant, coexpressed and purified as subcomplex
binding result [3]: binds
